Our source for the stoichiometry N values is paper PMC9886945.

The target in assay [1] is Mtb RNAP holoenzyme with σ^B in which residues 252-323 (subregion 4.2) are deleted (M. tuberculosis) (UniProt P9WGZ1). Put plainly: negative stain EM.
For assay [2] the target is unchanged. The assay is described as follows: SEC. (Size exclusion chromatography separates by hydrodynamic size, large species first.)

In general, stoichiometry N refers to the number of molecules, sites or subunits per partner or assembly. As to “Mtb RNAP holoenzyme with σ^B in which residues 252-323 (subregion 4.2) are deleted, P9WGZ1;P9WGY9;P9WGY7;P9WGY5;P9WGI5”, the stoichiometry N in assay [1] and in assay [2] was 8 each time.
